± gives the standard deviation of the averaged measurements.
These sequences were tested on Saccharomyces cerevisiae (assay: protein stability index of tFT-peptide fusion (C-terminal peptide) (PSI (0-1 scale)); higher = more stable (slower turnover)). Conditions: genetic background: wild type; temperature: 30 C.
Procedure: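 Multiplexed protein stability (MPS) profiling in S. cerevisiae. Random 12-aa peptides (tFT-X12 library) are fused to the C-terminus of a sfGFP-mCherry tandem fluorescent timer, after mCherry and a GGGS linker. Cells are FACS-sorted into 8 mCherry/sfGFP bins and deep-sequenced. The protein stability index (PSI) is the read-weighted bin average, scaled from 0 (unstable) to 1 (stable). Only peptides with >10 reads are reported; cells were grown at 30 °C in SC-His with glucose.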
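Note: PSI is a weighted mean of sequencing reads over stability bins, variants kept only with over 10 reads, mCherry proximal and sfGFP distal, peptide attached via GGGS linker.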

Q: How did the protein stability index turn out when SRYRPTGAHYGH was run?
A: 0.714 ± 0.064

Q: How did the protein stability index turn out when GIRHSNLGQALE was run?
A: 0.686 ± 0.11

Q: With PNLSPPTPLSAD as the sequence, how does the protein stability index read?
A: 0.649 ± 0.018

Q: WLPPPPPPSPSS was tested. Which protein stability index did it give?
A: 0.767 ± 0.0026

Q: For RESVLRVGCFQP, which protein stability index is on record?
A: 0.742 ± 0.072

Q: FMVFCFPFTGVL was tested. Which protein stability index did it give?
A: 0.562 ± 0.022

Q: With KKEEIIIGGKKI as the sequence, how does the protein stability index read?
A: 0.663 ± 0.043

Q: AAGWLWVWGVEG was tested. Which protein stability index did it give?
A: 0.6429 ± 0.0017

Q: How did the protein stability index turn out when NKNNCKLISEKF was run?
A: 0.721 ± 0.026

Q: With GLGTAFGAADTV as the sequence, how does the protein stability index read?
A: 0.693 ± 0.012

Q: With VTTQELRCRPEG as the sequence, how does the protein stability index read?
A: 0.636 ± 0.019

Q: For SLPLPPLPYSRT, which protein stability index is on record?
A: 0.732 ± 0.083

Q: PPSPRPPRPLFA was tested. Which protein stability index did it give?
A: 0.664 ± 0.021

Q: Which protein stability index does the source give for IDPTLPARAAPP here?
A: 0.737 ± 0.029

Q: How did the protein stability index turn out when CLAFDLGLSPLF was run?
A: 0.755 ± 0.099

Q: How did the protein stability index turn out when TKNNYKKKKTKT was run?
A: 0.682 ± 0.029

Q: For ALTFYYRGWSGL, which protein stability index is on record?
A: 0.619 ± 0.019

Q: How did the protein stability index turn out when PSSTLRLSPSSL was run?
A: 0.728 ± 0.023

Q: How did the protein stability index turn out when SPSPPPRTPPPL was run?
A: 0.689 ± 0.022

Q: With PAPPPPPTDTPP as the sequence, how does the protein stability index read?
A: 0.623 ± 0.0095

Q: For KKKEKKRKEEKN, which protein stability index is on record?
A: 0.824 ± 0.052

Q: How did the protein stability index turn out when ICCGLCRDCSCL was run?
A: 0.732 ± 0.069

Q: With LAKRSKCCNRSR as the sequence, how does the protein stability index read?
A: 0.686 ± 0.018

Q: GVSLFFITQFET was tested. Which protein stability index did it give?
A: 0.712 ± 0.012

Q: How did the protein stability index turn out when SSTCSPPRLSQS was run?
A: 0.679 ± 0.046

Q: With RGSSWSRVAGDG as the sequence, how does the protein stability index read?
A: 0.631 ± 0.063

Q: For TASAAKGAAPQQ, which protein stability index is on record?
A: 0.676 ± 0.016

Q: How did the protein stability index turn out when VRQSQIKHVVVQ was run?
A: 0.627 ± 0.019

Q: With APRPSPRPTPPS as the sequence, how does the protein stability index read?
A: 0.662 ± 0.078

Q: TFYLHSLLPTSF was tested. Which protein stability index did it give?
A: 0.6913 ± 0.0024

Q: FQHFGAPPTWHE was tested. Which protein stability index did it give?
A: 0.742 ± 0.093

Q: Which protein stability index does the source give for WKSSRSRCIHGE here?
A: 0.707 ± 0.026

Q: PVLPRPNTQSRS was tested. Which protein stability index did it give?
A: 0.694 ± 0.027

Q: Which protein stability index does the source give for SRGGGEGTVGKK here?
A: 0.697 ± 0.022

Q: How did the protein stability index turn out when VVGAVVLRRGGP was run?
A: 0.67 ± 0.012

Q: CVGTLSPKTVRT was tested. Which protein stability index did it give?
A: 0.697 ± 0.024

Q: PHPSPRGTPCPT was tested. Which protein stability index did it give?
A: 0.646 ± 0.021

Q: With STPSPPPAPRSP as the sequence, how does the protein stability index read?
A: 0.708 ± 0.015

Q: For SSFSAPPMPRSF, which protein stability index is on record?
A: 0.653 ± 0.028

Q: How did the protein stability index turn out when IKKSMKSLTRTE was run?
A: 0.735 ± 0.015

Q: For PPRLAPPDPSLL, which protein stability index is on record?
A: 0.673 ± 0.022

Q: How did the protein stability index turn out when LLGSFSLSMSSL was run?
A: 0.717 ± 0.021

Q: Which protein stability index does the source give for RIRGPECDLWFR here?
A: 0.707 ± 0.019

Q: Which protein stability index does the source give for VFVGCRECKLCA here?
A: 0.57592 ± 7.6e-05

Q: For NRYRILDKLRRK, which protein stability index is on record?
A: 0.6618 ± 0.0026

Q: For KQRGTRGNKANE, which protein stability index is on record?
A: 0.6231 ± 0.0058

Q: For RALGVPPLSHLP, which protein stability index is on record?
A: 0.656 ± 0.036

Q: With YFRYGLELVTFG as the sequence, how does the protein stability index read?
A: 0.5004 ± 0.0013

Q: Which protein stability index does the source give for QADAPPGDTNTL here?
A: 0.727 ± 0.041

Q: With DTHESELNQLNG as the sequence, how does the protein stability index read?
A: 0.6902 ± 0.0032

Q: With PLLHPTGFMGFP as the sequence, how does the protein stability index read?
A: 0.74 ± 0.028

Q: GSIRFVIFLTRL was tested. Which protein stability index did it give?
A: 0.587 ± 0.12

Q: KKKRTKKEREKK was tested. Which protein stability index did it give?
A: 0.6612 ± 0.0032

Q: For PPSRNPPDLDTQ, which protein stability index is on record?
A: 0.682 ± 0.14

Q: With PFPPLPLPLPLP as the sequence, how does the protein stability index read?
A: 0.7123 ± 0.00013

Q: How did the protein stability index turn out when WWGLGGREPGGS was run?
A: 0.711 ± 0.072

Q: Which protein stability index does the source give for HNIRIDTSEKNR here?
A: 0.6001 ± 0.0024

Q: For PLPPPSPSTPPP, which protein stability index is on record?
A: 0.796 ± 0.065

Q: SFCGVLCIRACF was tested. Which protein stability index did it give?
A: 0.623 ± 0.026

Q: How did the protein stability index turn out when RSASPPRPLPPP was run?
A: 0.737 ± 0.032

Q: For CVWFGVGRCCGR, which protein stability index is on record?
A: 0.648 ± 0.043

Q: Which protein stability index does the source give for SLAPLPARAPPL here?
A: 0.725 ± 0.018

Q: PHAEESNSTLSP was tested. Which protein stability index did it give?
A: 0.765 ± 0.12

Q: With DFILVRGWADLR as the sequence, how does the protein stability index read?
A: 0.616 ± 0.059

Q: For KKKKKKQKKKIQ, which protein stability index is on record?
A: 0.741 ± 0.05

Q: QFTLLEFVRSMG was tested. Which protein stability index did it give?
A: 0.613 ± 0.032

Q: For ENKTNKEKQQKQ, which protein stability index is on record?
A: 0.691 ± 0.012

Q: Which protein stability index does the source give for TNLYGWGGERTV here?
A: 0.688 ± 0.0092

Q: Which protein stability index does the source give for KKKKKEQKTNQT here?
A: 0.697 ± 0.022

Q: With PSALPPFQPGPL as the sequence, how does the protein stability index read?
A: 0.747 ± 0.047

Q: How did the protein stability index turn out when YFSSSPVFPPHL was run?
A: 0.667 ± 0.16

Q: KKKIKNKTNEEK was tested. Which protein stability index did it give?
A: 0.647 ± 0.038

Q: Which protein stability index does the source give for MRSRWFAREFGK here?
A: 0.659 ± 0.07

Q: KKKKKQIKKQKK was tested. Which protein stability index did it give?
A: 0.586 ± 0.02

Q: EGWVVYFEEDLE was tested. Which protein stability index did it give?
A: 0.735 ± 0.017

Q: HKKAWVVTVGIS was tested. Which protein stability index did it give?
A: 0.602 ± 0.042

Q: QVVIGRLSSQVG was tested. Which protein stability index did it give?
A: 0.664 ± 0.038

Q: For PYPPPPALPSSF, which protein stability index is on record?
A: 0.667 ± 0.032

Q: How did the protein stability index turn out when YRQAAIKNIKRK was run?
A: 0.683 ± 0.014

Q: Which protein stability index does the source give for GSLLSNVPPRIR here?
A: 0.706 ± 0.013

Q: NGLRILICNTTP was tested. Which protein stability index did it give?
A: 0.697 ± 0.03

Q: WGAKGLESIHVM was tested. Which protein stability index did it give?
A: 0.6 ± 0.019

Q: Which protein stability index does the source give for PLFAPLTPPLPP here?
A: 0.734 ± 0.033

Q: PPLPPPPPPFPP was tested. Which protein stability index did it give?
A: 0.5534 ± 0.0012

Q: RKYKKKKGSKEE was tested. Which protein stability index did it give?
A: 0.708 ± 0.063

Q: With PRPPALPFPLLA as the sequence, how does the protein stability index read?
A: 0.5329 ± 0.0036

Q: For RPPPHPPFPPRF, which protein stability index is on record?
A: 0.714 ± 0.052

Q: For GWLVVLGLVQDL, which protein stability index is on record?
A: 0.559 ± 0.039

Q: With ERARGGRGVGGN as the sequence, how does the protein stability index read?
A: 0.678 ± 0.033

Q: For VGARAIITIEFG, which protein stability index is on record?
A: 0.598 ± 0.018

Q: For FRGAGAEGSGWG, which protein stability index is on record?
A: 0.634 ± 0.0066

Q: How did the protein stability index turn out when SANCQQSRMFIT was run?
A: 0.623 ± 0.044

Q: Which protein stability index does the source give for RSRYRLFRADLS here?
A: 0.753 ± 0.062

Q: For LSPLTPAPLPPP, which protein stability index is on record?
A: 0.6675 ± 0.0058

Q: For FGVRPVSVPLCG, which protein stability index is on record?
A: 0.592 ± 0.047

Q: How did the protein stability index turn out when YSWGVLSWLSFG was run?
A: 0.648 ± 0.0074

Q: Which protein stability index does the source give for CLSDPDVVRVLS here?
A: 0.6914 ± 0.0018

Q: Which protein stability index does the source give for VIEIGEYSGNGK here?
A: 0.707 ± 0.046
